Laboratory results: PMC3419264, “ATPase Site Architecture Is Required for Self-Assembly and Remodeling Activity of a Hexameric AAA+ Transcriptional Activator” (Molecular Cell, 2012)

Each substance was assayed on T1, Nc1ncnc2c1ncn2[C@@H]1O[C@H](COP(=O)(O)OP(=O)(O)OP(=O)(O)O)[C@@H](O)[C@H]1O (assay: steady-state ATPase assay, NADH-coupled regeneration system). Conditions: 37 °C, without σ54, turnover given as Vmax (min^-1), maximal error 10%.
T1 construct: AAA+ domain, residues 1-275; purified as in Joly et al. 2006; hexamer
Type: biochemical, Escherichia coli
Excerpt: steady-state ATPase assay, NADH-coupled regeneration system on PspF1-275
With “PspF1-275 (Escherichia coli K-12; R162K)” the Km was 200 µM and the kcat was 0.0313 ± 0.00483 s⁻¹.
“PspF1-275 (Escherichia coli K-12; Y126A)” was tested, and the Km was 650 µM and the kcat was 0.1992 ± 0.0295 s⁻¹.
For PspF1-275 (Escherichia coli K-12; E43Y), the Km was 1,250 μM and the kcat was 0.0415 ± 0.00283 s⁻¹.
PspF1-275 (Escherichia coli K-12; L9A) was tested, and the Km was 2,300 μM and the kcat was 0.3453 ± 0.0425 s⁻¹.
In the case of “PspF1-275 (Escherichia coli K-12; R122A)”, the Km is reported as 300 µM and the kcat is reported as 0.021 ± 0.0005 s⁻¹.
Substance “PspF1-275 (Escherichia coli K-12; E118D)” has a Km of 800 µM and a kcat of 0.3372 ± 0.0617 s⁻¹.
PspF1-275 (Escherichia coli K-12; E43A) was tested, and the Km was 750 µM and the kcat was 0.0228 ± 0.00167 s⁻¹.
Substance PspF1-275 (Escherichia coli K-12; E43D) has a Km of 250 µM and a kcat of 0.371 ± 0.08 s⁻¹.
Substance “PspF1-275 (Escherichia coli K-12; R162A)” has a Km of 90 µM and a kcat of 0.003 ± 0.00033 s⁻¹.
PspF1-275 (Escherichia coli K-12; L44A) was tested, and the Km was 310 µM and the kcat was 0.3027 ± 0.0403 s⁻¹.
